The text below walks through data of article PMC11882849, “Dynamic and intricate regulation by the Csr sRNAs in the Arctic Pseudoalteromonas fuliginea”.

The data set addresses CsrA (Pseudoalteromonas fuliginea BSW20308, UniProt A0A063KJE6 1-63). The experiment in a line: EMSA; 1 uM CsrA; 0.1-0.5 nM RNA, 40 mM NaCl, 4 mM Tris pH 8.0, 4 mM MgCl2, 4% glycerol, 100 mg/ml BSA (so in the source), 20 mM DTT, room temperature 30 min, native PAGE. Particulars: protein: recombinant; tags: C-terminal His6; chain copies: 2. Background: Mobility shift assays separate free from complexed probe on a gel.

B1: Pf3 sRNA (structured_RNA)
RNA: AAUAAAAAAACGGAAAUAGCUAUAAGGAAAGUAGCGCGGCACGACUACAUAGCACAAGAUUGGUGCUACUAAAGGAAAUAAUAAAAAAGAGUCAGGAAGACCGAUAAUAAUAAAAACUCAUGGAAGUUUAAUAAUAAAAACAAAAUGGAAUGCUACAAGGAACGUAAAAAUAAUAACAAUACGGACUGAUAAUAAUAAAAAUAAUAAAGACUAAAAAAAGUCGAAGGGAGA
On to B1, for which the binding result is given as “binds”.
